Experimental data from US20210379157A1 (UNIVERSITY OF ULSTER, published 2021).
Where no end group is shown, it is not given here. [ ]: non-standard residue; d: D form.

T1: GIP receptor (human, UniProt P48546 22-466)
T1 sequence (looked up): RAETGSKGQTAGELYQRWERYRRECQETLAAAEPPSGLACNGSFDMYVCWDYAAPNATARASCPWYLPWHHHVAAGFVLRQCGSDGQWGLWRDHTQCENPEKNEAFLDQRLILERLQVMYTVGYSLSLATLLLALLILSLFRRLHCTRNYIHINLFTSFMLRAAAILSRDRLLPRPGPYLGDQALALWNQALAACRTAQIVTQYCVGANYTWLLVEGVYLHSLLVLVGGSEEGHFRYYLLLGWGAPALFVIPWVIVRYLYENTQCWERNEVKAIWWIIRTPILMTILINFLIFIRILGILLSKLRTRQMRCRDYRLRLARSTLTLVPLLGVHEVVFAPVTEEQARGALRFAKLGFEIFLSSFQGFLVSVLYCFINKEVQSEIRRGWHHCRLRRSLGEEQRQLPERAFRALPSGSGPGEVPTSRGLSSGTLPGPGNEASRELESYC


target: T1, GIP receptor; assay: cell-based or functional assay

cAMP production in SaOS-2 cells, lowest effective concentration | Binder
0.1 nM | Y[dA]EGTFISDYSIAMHPQQPWIL [(DAla2)GIP/xenin-8-Gln]
10 nM | Y[dA]EGTFISDYSIAMHPQQPWILGAADDDDDD [(DAla2)GIP/xenin-8-Gln(L-Asp)]
1000 nM | Y[dA]EGTFISDYSIAMHPQQPWILGAAEEEEEE [(DAla2)GIP/xenin-8-Gln(L-Glu)]
